According to US20250134969A1 (CASE WESTERN RESERVE UNIVERSITY, published 2025):
Ends that are not written are not given here.

Target: T1, bovine serum albumin (bovine, UniProt P02769 25-607)
T1 construct: Negative control surface; also called BSA
Test: BioFlux microfluidic adhesion, RhB-labeled “VBP+CBP”-decorated liposomes flowed at 25 dyn/cm^2 over albumin-coated channels, fluorescence microscopy
Description: The “VBP+CBP”-decorated nanoparticles and control (undecorated) nano-particles were evaluated for their specific adhesion capabilities utilizing a BioFlux 200 microfluidic system (Fluxion Biosciences) and observed under inverted fluorescence microscope imaging. This system allows simulation of a physiologically relevant vascular flow environment. Here, the microfluidic channels were incubated with either 0.3 wt % bovine serum albumin (BSA) in water or 40 μg/mL equine type 1 fibrillar collagen and 10 μg/mL vWF in 20 μM acetic acid for 1.5 h. Unbound albumin and collagen were removed with a saline rinse. […] Fluorescence microscopy imaging of particle Rhodamine B label was used to quantify the extent of particle adhesion to the coated surfaces. Thrombin release kinetics was measured by sealing the column-separated t-TLNPs in a MWCO 100 K dialysis bag, placing the bag in a TBS reservoir, and removing aliquots from the reservoir at predefined time points over the course of 6 h (fresh TBS was added back to the reservoir appropriately after each aliquot removal). […] Thrombin concentrations from the collected aliquots were evaluated using a human thrombin ELISA and plotted over time to determine the release profile. […]

T1 sequence (P02769 25-607 limits assumed): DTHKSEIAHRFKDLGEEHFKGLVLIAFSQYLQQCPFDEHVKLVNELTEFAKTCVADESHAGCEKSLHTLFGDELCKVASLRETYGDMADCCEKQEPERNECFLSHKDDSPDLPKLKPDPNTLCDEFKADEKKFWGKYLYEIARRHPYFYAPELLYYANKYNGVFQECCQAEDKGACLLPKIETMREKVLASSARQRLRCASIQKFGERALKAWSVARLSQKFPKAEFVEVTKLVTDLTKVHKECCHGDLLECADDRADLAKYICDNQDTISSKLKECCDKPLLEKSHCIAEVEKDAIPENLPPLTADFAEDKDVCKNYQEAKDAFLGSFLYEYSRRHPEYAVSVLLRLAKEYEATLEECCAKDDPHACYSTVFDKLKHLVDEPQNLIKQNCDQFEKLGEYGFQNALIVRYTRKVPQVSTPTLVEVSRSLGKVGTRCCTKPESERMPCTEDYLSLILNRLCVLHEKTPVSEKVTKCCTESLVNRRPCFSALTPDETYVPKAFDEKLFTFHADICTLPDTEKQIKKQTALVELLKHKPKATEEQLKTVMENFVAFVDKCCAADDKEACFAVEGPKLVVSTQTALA

B1: vWF-binding peptide (VBP), cysteinylated, CTRYLRIHPQSWVHQI, conjugated to DSPE-PEG2K and displayed on liposomal nanoparticles (peptide)
peptide: C(DSPE‑PEG2000‑maleimide)TRYLRIHPQSWVHQI
notes: In every adhesion assay the peptide stood on the surface of liposomes (1.25 mol % DSPE-PEG2K-VBP) together with CBP (1.25 mol %); also called DSPE-PEG2K-VBP
binding result: no binding
